Test results reported in EP4431525A1 (Anaveon AG, dated 2024).
Substitutions are numbered along the chain they refer to. One block for each binder: values may come before it.

What was measured:
[1] = biological target: T1, human PD-1 expressed on cells (human, UniProt Q15116 25-288); assay: Retrogenix cell microarray, HEK293 cells
T1 construct: whole, on cells; also called hPD-1; PDCD1

[2] = biological target: T2, hPD-1 Avi-Tag Biotin (AcroBiosystems, PD1-H82E4) (human, UniProt Q15116 25-167, biotin on Avi-Tag); assay: IgG format; ELISA / SPR
T2 construct: bought; also called recombinant hPD-1
T2 sequence (Q15116 25-167 limits assumed): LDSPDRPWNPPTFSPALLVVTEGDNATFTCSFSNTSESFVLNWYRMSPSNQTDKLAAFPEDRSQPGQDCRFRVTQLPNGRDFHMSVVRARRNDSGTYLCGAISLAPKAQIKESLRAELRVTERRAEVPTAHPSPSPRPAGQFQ

T1 sequence (Q15116 25-288): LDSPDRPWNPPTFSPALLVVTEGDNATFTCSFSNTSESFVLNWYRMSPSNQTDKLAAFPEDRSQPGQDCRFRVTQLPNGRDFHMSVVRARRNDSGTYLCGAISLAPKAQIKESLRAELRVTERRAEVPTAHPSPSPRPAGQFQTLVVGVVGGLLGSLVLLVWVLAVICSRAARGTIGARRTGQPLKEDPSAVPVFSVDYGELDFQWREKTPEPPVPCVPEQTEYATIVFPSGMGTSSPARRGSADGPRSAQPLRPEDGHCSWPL

binding result [1]: binds | binding result [2]: binds
B1: z2-XVT458-m1 (antibody, V domains shown)
VH: QVQLVQSGAEVKKPGASVKVSCKASGYTFTNFYIHWVRQAPGQGLEWMGSIYPNYGFTAYNQKFKDRVTMTVDTSTSTAYMELRSLRSDDTAVYYCARGYSYAMDYWGQGTTVTVSS
VL: DIQMTQSPSSVSASVGDRVTITCSASQGIWGDLNWYQQKPGKAPKLLIYHTSQLHSDVPSRFSGSGSGTDFTLTISSLQPEDFATYYCQGYSKDLLTFGGGTKLEIK
notes: IgG format; also called XVT458-z2-m1; XVT458-z2-ml

binding result [1]: binds | binding result [2]: binds
B2: z2-XVT458-m3 (antibody, V domains shown)
VH: B1 VH with S50R, F57I
VL: B1 VL with W30S, L54R
notes: IgG format; also called XVT458-z2-m3; XVT458-Z2-M3

binding result [1]: binds | binding result [2]: binds
B3: z2-XVT458-m6 (antibody, V domains shown)
VH: B1 VH with F57I
VL: B1 VL with W30S
notes: IgG format; also called XVT458-z2-m6; XVT458-Z2-m6
